# Test results as given in patent publication US7618977B2, “Method of treating dermatitis comprising administering a chymase inhibitor” (Asubio Pharma Co., Ltd., priority 2000, dated 2009).
# T1: Human heart chymase (Homo sapiens, UniProt P23946)
# T1 construct: Human heart chymase was purified according to the method of Urata et al; from tissue; host or cells: human heart
# T1 sequence (P23946 22-247): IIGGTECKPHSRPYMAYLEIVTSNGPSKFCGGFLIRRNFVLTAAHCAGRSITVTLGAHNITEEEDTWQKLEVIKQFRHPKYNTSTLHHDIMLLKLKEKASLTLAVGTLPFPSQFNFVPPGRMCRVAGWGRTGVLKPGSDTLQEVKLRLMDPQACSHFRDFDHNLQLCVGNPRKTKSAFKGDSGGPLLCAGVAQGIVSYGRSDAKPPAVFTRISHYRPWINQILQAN
# B1: human chymase: recombinant human mature chymase expressed in CHO dhfr- cells, purified; serine protease of mast cells (protein, UniProt P23946 22-247, looked up)
# Chymase: T1 sequence (P23946 22-247)
# What was measured:
# Human heart chymase = biological target: T1, Human heart chymase; assay: Measurement of chymase inhibitory activity; type: biochemical; details: purified human heart chymase, substrate Suc-Ala-Ala-Pro-Phe-MCA, 30° C.
# Procedure: Human heart chymase was purified according to the method of Urata et al. (J. Biol. Chem., 1990, 265, 22348). The inhibitory activity of the quinazoline derivatives of the present invention with respect to chymase was measured in the following manner. That is, the purified enzyme solution was diluted to a suitable concentration with 0.1M tris-hydrochloride buffer (pH=7.5), 1M sodium chloride, and 0.01% TritonX-100 to obtain an enzyme solution. A 10 mM dimethyl sulfoxide (hereinafter referred to as DMSO) solution of Suc-Ala-Ala-Pro-Phe-MCA (Peptide Institute) was diluted 20-fold at the time of use by 0.1M tris-hydrochlorate, 1M sodium chloride, and 0.01% TritonX-100 to obtain the substrate solution.
# 75 μl of the enzyme solution warmed to 30° C. was mixed with 5 μl of DMSO solution of the test sample. The mixture was preincubated at 30° C. for 10 minutes. Next, 20 μl of a substrate solution warmed to 30° C. was mixed with the test sample-enzyme mixture and incubated at 30° C. After 10 minutes, 50 μl of 30% acetic acid was added to stop the enzymatic reaction. The amount of the AMC produced was quantified using a fluorescent photometer. At the same time, a blind test was carried out by adding, instead of the test sample solution, 5 μl of DMSO and performing the same reaction. […]
# eosinophils of the skin = assay: Administration of human chymase to mouse ears, number of eosinophils of skin; type: in vivo, mice; details: p<0.01
# Procedure: The effect of a chymase inhibitor on the infiltration of eosinophils of the skin in the test of Example 10 was studied. That is, 48 hours after the sixth application of hapten, the ears of the mice were fixed with formalin and paraffin sections prepared in accordance with an ordinary method. The sections were stained with Fast Green (Fluka), known to specifically stain eosinophils (Current Protocol in Immunology, Wiley Interscience). That is, the deparaffined sections were fixed with 100% methanol for 1 minute, then stained for 30 minutes by 0.2% Fast Green dissolved in 70% ethanol. The eosinophils were measured by randomly selecting 10 fields (×400) under a microscope and counting the number of cells per area using an ocular grid. As the chymase inhibitor, the Compound 18 and Compound 34 were used and =administered by the method described in Example 10. […] The thickness of the ear was measured by a micrometer (Digimatic Indicator, Mitsutoyo Co.) immediately before each administration of chymase and 1 hour, 6 hours, 24 hours, and 48 hours after the administration to find the increase from the ear thickness before the first administration of chymase. […] The number of eosinophils of the skin was measured by the method described in Example 11. […]
# [1] = test system: human polymorphonuclear leukocytes (PMN); assay: Human chymase-induced migration of polymorphonuclear leukocytes, 48-well chemotaxis chamber; type: cell-based
# Procedure: In Example 6, it was shown that a remarkable infiltration of leukocytes is observed in late-phase reaction of human chymase-induced dermatitis. The effect of human chymase on the migration of polymorphonuclear leukocytes (PMN) in vitro was investigated for the purpose of investigating the mechanism of chymase-induced leukocyte infiltration. PMN was isolated by adding a ⅕th volume of 6% dextran solution to heparinized whole blood from normal healthy subject and allowing it to stand at 37° C. for 1 hour, then layering the supernatent on Ficoll-Paque (Amersham Pharmacia Biotech) and centrifuging it. Further, the migration of PMN was measured by using a 48-well chemotaxis chamber (NeuroProbe Co.) by the textbook method (Seibutsu Yakkagaku Jikken Koza (Biopharmacology Experiment Lectures) 12, 315, Hirokawa Shoten). That is, a medium containing human chymase (200 to 800 nM) or fMLP (N-formyl-L-methionyl-L-leucyl-L-phenylalanine, Sigma-Aldrich Co.) (10 nM) was placed in the lower well of the chamber. The upper well and the lower well were separated by a polycarbonate filter (pore size 5 μm) (NeuroProbe Co.) PMN (1×10^6/ml) was added to the upper well and cultured at 37° C. for 1 hour, then the filter was fixed, stained and the number of cells in the membrane were counted under a microscope (400×) (Seibutsu Yakkagaku Jikken Koza (Biopharmacology Experiment Lectures) 12, 315). For the cell staining, a hemacolor solution (Merck) was used. In this test, when investigating the effect of the chymase inhibitor, a chymase inhibitor (Compound 18 or Compound 34) was dissolved in dimethyl sulfoxide and added to the lower well of the chamber just before the addition of the human chymase. The concentration of the compound was adjusted so that the final concentration of the dimethyl sulfoxide became 1%.
molecule,measurement,setting,value
"CC(C(=O)O)C(=O)Nc1cccc(S(=O)(=O)n2c(=O)[nH]c3cc(Cl)ccc3c2=O)c1 (centres unmarked) [Compound 13, 2-{3-[(7-chloro-2,4(1H, 3H) -quinazolinedion-3-yl)sulfonyl]phenylaminocarbonyl}propionic Acid]",IC50,Human heart chymase,300 nM
B1,increase in number of eosinophils compared with ear administered saline,eosinophils of the skin; 24 hours after single intradermal administration of 2.0 μg,approximately 7.6 fold
same,increase in number of eosinophils compared with group administered saline,"eosinophils of the skin; administered at 1 week intervals four times in total, 1 week after administration",about 21 fold
same,migration-promoting activity relative to fMLP,[1]; 200 to 400 nM chymase equals 10 nM fMLP,about 1/30
same,concentration at which promotion of human PMN migration is statistically significant,"[1]; chymase 200 to 800 nM in lower well, p<0.05 Dunnett's test",≥ 400 nM
